Legend:
[1] = system: Tar4E (chemoreceptor Tar, all-glutamyl, pentapeptide-bearing); assay: CheB binding to pentapeptide-bearing Tar4E in Nanodiscs (biolayer interferometry); design: species or system E. coli; conditions: Tar 4E, pentapeptide yes, BLI; for dwell time (1/koff) / KA (equilibrium association constant) / kon (apparent association rate constant): pH 7.5, 2% BSA (plus 2 mM DTT for CheB and CheBc); for dwell time (1/koff): calculated from mean koff; for kon (apparent association rate constant): mean ± SD of at least three independent experiments
Method: (§1) We determined the kinetics of association and dissociation of methylesterase/deamidase CheB in its low- and high-activity form with the E. coli aspartate chemoreceptor Tar using biolayer interferometry ([22], [23]) and isolated receptor homodimers in Nanodiscs ([24], [25]). Apparent rate constants of association and dissociation were derived from global fits of time courses for binding and release (see Fig. S1 in the supplemental material). Equilibrium dissociation constants were calculated from those apparent rate constants.
Supplementary file : FIG S1 Example time courses of CheB binding to Tar. Time courses from five consecutive runs of CheB at different concentrations binding to immobilized Tar4E homodimers. For each time course, a sensor tip decorated with avidin to which were bound biotinylated Tar homodimers in Nanodiscs was placed in buffer and a baseline was established (240 to 255 s). The tip was then placed in a tube containing a solution of CheB at a specific concentration. After 30 s, at which time binding of CheB and Tar was close to an apparent equilibrium, the tip was switched to a tube of buffer, and dissociation was monitored. The global fit to the data is shown as a thin black line. Download FIG S1, TIF file, 1.9 MB.
(§2) E. coli CheB and Salmonella CheB D56C/C207S/C309S and D56C/S164A/C207S/C309S were purified as described previously ([11]). CheBC (amino acids [aa] 153 to 349) was purified using the procedure of West et al. ([40]), except that Bio-Gel P-60, was not used. CheB D56C/C207S/C309S and CheB D56C/S164A/C207S/C309S were modified to create a disulfide-linked phosphoryl group on D56C following the procedure described in reference but using a 10-fold molar excess of DTNB [Ellman’s reagent, 5,5′-disulfanediylbis(2-nitrobenzoic acid)] rather than 90-fold and a 50-fold molar excess Na3SPO3 rather than 1,000-fold. The extent of modification was 59% for the former and 60% for the latter determined by reversed phase chromatography essentially as described previously ([26]) and confirmed by Nano LC-Nanospray QTQF mass spectroscopy. Membrane scaffold protein MSP1D1(-) ([41]) was purified as described previously ([25]). Tar4E L378C, Tar4Q L378C, Tar4EΔpp-6H L378C, and Tar4QΔpp-6H L378C were purified, incorporated into Nanodiscs at approximately one receptor dimer per disc, and biotinylated at L378C as described previously ([23], [42]). […] These activities were confirmed for representative samples used in our analyses. Receptor-containing Nanodiscs were dialyzed into 50 mM Tris-HCl (pH 7.5), 0.5 mM EDTA, 10% (wt/vol) glycerol, and 100 mM NaCl. Prior to a binding experiment, the solution was changed using a spin desalting column to 50 mM Tris-HCl, 10% (wt/vol) glycerol, 5 mM MgCl2, and 50 mM KCl (pH 7.5).
(§3) Kinetics of CheB association and dissociation with Nanodisc-embedded Tar biotinylated at L378C were determined using biolayer interferometry ([22], [23]) as measured by a BLItz instrument (ForteBio, Menlo Park, CA, USA) and described in reference. Representative time course experiments are shown in Fig. S1 in the supplemental material. Measurements for CheB-P* and CheB-P*-I were in 50 mM Tris-HCl (pH 7.5), 10% (wt/vol) glycerol, 5 mM MgCl2, 50 mM KCl, and 2% (wt/vol) bovine serum albumin (BSA). Measurements for CheB and CheBc were in the same solution plus 2 mM dithiothreitol (DTT).
Using BLItz software, response curves were fit globally to a 1:1 binding model to yield apparent association rate constants (kon) and dissociation rate constants (koff). For analysis of complex patterns of binding, in which more than one binding reaction appeared to be contributing, for instance one that appeared saturable and another nonspecific, nonsaturable, the data were exported and fit globally to nonlinear exponential functions using OriginPro 2017. The best fits to the data were obtained using the following functions. […]

[2] = system: Tar4QΔpp (chemoreceptor Tar, all-glutaminyl, lacking NWETF); assay: CheB binding to Tar4QΔpp (pentapeptide-lacking) in Nanodiscs (biolayer interferometry); design: species or system E. coli; conditions: Tar 4Q, pentapeptide no, BLI, pH 7.5, 2% BSA (plus 2 mM DTT for CheB and CheBc); for dwell time (1/koff): calculated from mean koff; for dwell time (1/koff) / KA (equilibrium association constant): propagated SD; for KA (equilibrium association constant): calculated from mean kon and koff; for kon (apparent association rate constant): mean ± SD of at least three independent experiments
Method: as §1, §2, §3
(§4) Using BLItz software, response curves were fit globally to a 1:1 binding model to yield apparent association rate constants (kon) and dissociation rate constants (koff). For analysis of complex patterns of binding, in which more than one binding reaction appeared to be contributing, for instance one that appeared saturable and another nonspecific, nonsaturable, the data were exported and fit globally to nonlinear exponential functions using OriginPro 2017. The best fits to the data were obtained using the following functions. R=R0 + Req[a(e^−kd1 t) + b(e^−kd2 t)] was used to globally fit dissociation time courses, with R being the response (in nanometers), a + b = 1, with a and b being the portion of the signal (in nanometers) for fast and slow phases, respectively, kd1 and kd2 being the respective dissociation rate constants, and Req being the response at equilibrium. Association data were fit using apparent dissociation rate constants kd1 and kd2, relevant CheB concentrations (C) and the equation R=R0 + Req[a(1 − e^−(ka1 C+kd1)t) + b(1 − e^−(ka2 C+kd2)t)]

[3] = target: Tar4EΔpp-6H L378C, E. coli Tar lacking the carboxyl-terminal pentapeptide, all-glutamyl form, homodimer in … (E. coli, UniProt P07017 1-553, L378C, biotinylated at L378C); assay: SPR
[4] = system: Tar4Q (chemoreceptor Tar, all-glutaminyl, pentapeptide-bearing); assay: CheB binding to pentapeptide-bearing Tar4Q in Nanodiscs (biolayer interferometry); design: species or system E. coli; conditions: Tar 4Q, pentapeptide yes, BLI; for dwell time (1/koff) / KA (equilibrium association constant) / kon (apparent association rate constant): pH 7.5, 2% BSA (plus 2 mM DTT for CheB and CheBc); for dwell time (1/koff): calculated from mean koff; for kon (apparent association rate constant): mean ± SD of at least three independent experiments
Method: as §1, §2, §3, §4

[5] = system: Tar4EΔpp and Tar4QΔpp; assay: CheB binding to pentapeptide-lacking Tar, 4E and 4Q (biolayer interferometry); design: species or system E. coli
Method: as §1
E. coli CheB and Salmonella CheB D56C/C207S/C309S and D56C/S164A/C207S/C309S were purified as described previously ([11]). CheBC (amino acids [aa] 153 to 349) was purified using the procedure of West et al. ([40]), except that Bio-Gel P-60, was not used. […] The extent of modification was 59% for the former and 60% for the latter determined by reversed phase chromatography essentially as described previously ([26]) and confirmed by Nano LC-Nanospray QTQF mass spectroscopy. […]
Kinetics of CheB association and dissociation with Nanodisc-embedded Tar biotinylated at L378C were determined using biolayer interferometry ([22], [23]) as measured by a BLItz instrument (ForteBio, Menlo Park, CA, USA) and described in reference. […]

[6] = calculated from mean kon and koff, propagated SD
[7] = 50 mM Tris-HCl pH 7.5, 10% glycerol, 5 mM MgCl2, 50 mM KCl, 2% BSA (plus 2 mM DTT for CheB and CheBc), calculated from mean kon and koff, propagated SD, read-out: KD (equilibrium dissociation constant)

B1: CheBC, catalytic domain of E. coli CheB lacking the regulatory domain and linker (domain or fragment)
chain: LSSEKLIAIGASTGGTEAIRHVLQPLPLSSPALLITQHMPPGFTRSFADRLNKLCQIGVKEAEDGERVLPGHAYIAPGDRHMELSRSGANYQIKIHDGPAVNRHRPSVDVLFHSVAKQAGRNAVGVILTGMGNDGAAGMLAMRQAGAWTLAQNEASCVVFGMPREAINMGGVCEVVDLSQVSQQMLAKISAGQAIRI
[1]; propagated SD
  dwell time (1/koff): 2.1 ± 0.1 s
[1]; [6]
  KA (equilibrium association constant): 1.7 ± 0.4 10^3 M^-1
[1]
  kon (apparent association rate constant): 810 ± 200 M⁻¹ s⁻¹
[2]
  dwell time (1/koff): 1.7 ± 0.1 s
  KA (equilibrium association constant): 0.8 ± 0.1 10^3 M^-1
  kon (apparent association rate constant): 480 ± 20 M⁻¹ s⁻¹
[3]
  Kd: 660 µM
[4]; propagated SD
  dwell time (1/koff): 2.1 ± 0.4 s
[4]; [6]
  KA (equilibrium association constant): 0.7 ± 0.2 10^3 M^-1
[4]
  kon (apparent association rate constant): 350 ± 60 M⁻¹ s⁻¹

B2: methylesterase/deamidase CheB from E. coli, low-activity, unphosphorylated form (enzyme, UniProt P07330 1-349, looked up)
chain: MSKIRVLSVDDSALMRQIMTEIINSHSDMEMVATAPDPLVARDLIKKFNPDVLTLDVEMPRMDGLDFLEKLMRLRPMPVVMVSSLTGKGSEVTLRALELGAIDFVTKPQLGIREGMLAYNEMIAEKVRTAAKASLAAHKPLSAPTTLKAGPLLSSEKLIAIGASTGGTEAIRHVLQPLPLSSPALLITQHMPPGFTRSFADRLNKLCQIGVKEAEDGERVLPGHAYIAPGDRHMELSRSGANYQIKIHDGPAVNRHRPSVDVLFHSVAKQAGRNAVGVILTGMGNDGAAGMLAMRQAGAWTLAQNEASCVVFGMPREAINMGGVCEVVDLSQVSQQMLAKISAGQAIRI
notes: CheB methylesterase/deamidase of E. coli, unphosphorylated, from plasmid pCW/cheB; measured with 2 mM DTT in the buffer; also called low-activity CheB; unmodified CheB; source: E. coli K-12 RP3098 with pCW/cheB, purified
[1]; [7]
  Kd: 230 ± 60 µM
[1]; propagated SD
  dwell time (1/koff): 2.8 ± 0.2 s
[1]; [6]
  KA (equilibrium association constant): 4.4 ± 1 10^3 M^-1
[1]
  kon (apparent association rate constant): 1,600 ± 420 M^-1s^-1
[2]
  dwell time (1/koff): 1.5 ± 0.05 s
  KA (equilibrium association constant): 1.7 ± 0.4 10^3 M^-1
  kon (apparent association rate constant): 1,100 ± 260 M^-1s^-1
[5]; Tar4QΔpp versus Tar4EΔpp
  preference for substrate (4Q) versus product (4E) form: not significantly different
[5]; ratio of KD, Tar4Δpp versus pentapeptide-bearing
  fold weaker than binding to pentapeptide / pentapeptide-bearing receptor: approximately fourfold
[4]; [7]
  Kd: 160 ± 30 µM
[4]; propagated SD
  dwell time (1/koff): 2.2 ± 0.1 s
[4]; [6]
  KA (equilibrium association constant): 6.3 ± 1 10^3 M^-1
[4]
  kon (apparent association rate constant): 2,900 ± 480 M^-1s^-1
